The series can be described thus: protease stability score; higher = more stable; yeast display proteolysis, trypsin and chymotrypsin.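 Note: relative to predicted unfolded state with 0 unfolded-like and 1 meaning tenfold more protease.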
For “DERREQTRHWINMFTHAMRTGDEHTFKELLDPHVRVKDEHEEDHGRDKAVELFSRVDVFHDIKLRDIDVQGNYVTIEVELLGEIDGKRTTHDLHIITYKINGRWILKSVSIR”, the protease stability score turned out to be 1.06.

In the case of “TELREIFIHFAEMILENIQTGDEDTLDELADPNTRIDINGVTMHGREKISRHWKEHLDRYDHFRIEIKRIRSQGDFAENDVTLVIIYNGQRIRIRMEVEIIFVDGRIHSINERRE”, the protease stability score came out at 0.225.

With “DEDEEESRRFTEILLHKFWTGDEDWYRKMADPNDKSVVGDKLFHGRDEVDRAIHEFLRHLGVDHFELHRLEVDHYNGKAEVRSDMILRVNGQERRMILKVHNTKFNGRWTLESVRIESR”, the protease stability score is 0.715.

As for “HDLEKLVKFWYELWLRLLLTGDEEIFSHLADPNARLEVDGVEFVGREQVLKDLKRRMEEMRLTSMIITHVDWQGEKNRTEGITHGRINGVDITSETHLVLVIVNGRIRSIRIEIR”, the protease stability score amounted to 1.54.

“SEEDEIVRKLSEIMIHSLETGDFDSFRELADPDYRIETEDHEIVGMEEFERWLKEHLDRFDYDKWEYHSLHIYGDKVKMDIELHLDIDGVKRTHDVYIIIRKYNGQWIVESFMFK” displayed a protease stability score of -0.384.

“SEDKEADEIIIEKIMRALTTGDENLWKRLLDPNVRFEYDGVEMHGWEEIKKLLERIDHFHVDDHKIKDVRIIDGRIDNYGRLRGTIDINGREIHTILHVRILVLKIDGKWTVESEHSK” showed a protease stability score of 1.43.

The sequence “DEIEEVFREYTERIVDMWKTGDEELTNRNMDPNARMRIDVNGRDLELHGRERWIEHFRELGIKYEEIRDVRLRLVGDKANLEIDGEVDVNGQKHHTSLIIHVEKINGKWVISRIIFFIR” returned a protease stability score of 1.2.

In turn, “DDLDRYAEEAEKRHYENLETGDENRLQENADPHTRMDFNGRKFHGMDHNYHWMRKIREDLGVDNIRIHIHHMSVVDGVLHLDLIIRYGDKELRLHFVSEKINGRWRLKEVYYK” had a protease stability score of 0.855.

In the case of “SEDDRENHRFMEQFLHDWETGDEDSLRKLADPDVKVRINGVDLHGWSFFEDYLRRVDHIDDFKIDHVEIQGDKIKIHGQQHGRIDGRRDTYKVQNFFIKIDGKWRLKMVINR”, the protease stability score was 1.34.

With “TEDREEVRRWWKDLLRSLHTGDEEVLRKQIDPNVKLVDEDERSVGMDRFVKFMHFINREIRIERIHIKRLRLIDGQLEADTRMHVNIDGRIEETDVHILAKKVDGKWLLTSVILD”, the protease stability score is 1.48.

Turning to “DKRDEKMERFLRLMIEFYTTGNEDEFRKLADPDVRTIVGDKHAHGWEESEKVFRILIDHMRIRRIHIEHITVQGNWAHSITRLDGEVNGVRVHVRTEVVIIVYNGRVETIDLRWE”, the protease stability score is 1.28.

As for “DERHQDLREVLTRLMHLLLTGDWDEFHRLADPSTQLEVGDFHFHGWEMVVEFLKRFYFHIRLRRFHIEHVRVINGRIDSDTRVESEVNGVRDVERTHVHLNKVDGRWVIKRMHME”, the protease stability score was determined as 0.966.

In turn, “SEHQEVFEEFVRRWIEDMETGNEEQLRHLADPDARIVINGREHHGREWVSTFLMKRIRHLGVKHVEIDDKKQIGEKIHVRVTIHFDGVTVDTELIALKINGRWFMHEVIFR” registered a protease stability score of 1.5.

Consider “DEEEIEIRRIWERELHWRSTGDEKSLIELMDPRTIIEINGREIHGREEADRHVHEFAEKYKNVRVRYFVREIEVQGEFVHVHTEITLDFDGVEIRFFMILIILKIDGRWLSHRVIVH”, for which the protease stability score is 0.81.

“HESHEFVKEAFRLWVESLRTGDEKTLSRYADPHVRVTYDGREFHGRDWYVKLMDELRVNDVKLDDVNVQGEKIDIEGTIDGQVNGQDREIKVRLHAEKINGRWVNKKIQID” gave a protease stability score of 1.11.

The sequence “SEEEELSEIASRITIEILKTGDEHMLHELADPNARLDVNGVESHGRESVVKSFRMLGVKHWTLRDVKVVDGRVWIHGELHVDGKTRRLILIVEKINGRWVMEEIRIG” returned a protease stability score of 0.817.

Turning to “SETREIEEEWLRMMFENFITGDWKEIYKYADPNMRFTLSIGEKQERRHGRESMFHAFRRLEEDLGAKHVRLEDSTVYNGRVEINITLEDGDKHINRYIHIQVVNGRMHTIEVSFR”, the protease stability score turned out to be 0.628.

Regarding “SEEDKLMRDIERLVLEWLETGDEDALKKMLDPHVRVEFNGVERIGMDELARLLKHLRFDHIHIRNSRVINGVIHIDGHIDGTINGRRVRHDLEVRIIIVNGRFKEIILIDR”, the protease stability score worked out at 1.21.

The values are drawn from the NTF2 design screens of Basanta et al. (2020).
